Results: PMC9915745 (ArXiv, 2023)

Biological target: the molecule itself
Assay: SEC-MALS

B1: E. coli periplasmic chaperone HdeA, wild type (natural protein)
chain: ADAQKAADNKKPVNSWTCEDFLAVDESFQPTAVGFAEALNNKDKPEDAVLDVQGIATVTPAIVQACTQDKQANFKDKVKGEWDKIKKDM
modifications: native disulfide between Cys18 and Cys66
For B1, which “stoichiometry N” value is on record?
Its value is 2.
